Measurements as given in paper PMC11330416.
“And” between values parts separate entries of the source, which are not always exact repeats. Equal values may be shown once.

Legend:
[1] = target: SARS-CoV-2 Omicron BA.4/5 spike protein reference material OMIC-1 (SARS-CoV-2 (Omicron BA.4/BA.5) | human) (UniProt P0DTC2); assay: SEC-MALS; Waters BEH SEC 4.6 x 150 mm column (200 A for ACE2-1, 450 A for OMIC-1), DPBS with 0.02% Tween-20, pH 7.4, 0.4 mL/min; UV at 280 nm, MALS and RI detection; relative amounts of species from SEC-UV
[2] = target: biotinylated human angiotensin-converting enzyme 2 reference material ACE2-1 (human) (UniProt Q9BYF1); assay: SPR; ACE2-1 immobilised by its biotin on streptavidin on a biotin-coated Au chip (250-300 RU), blocked with 10 uM BSA; spike analyte in a twofold series of 12.5-200 nM at 50 uL/min, about 90 s association, 30-45 min dissociation; 10 mM HEPES pH 7-7.4, 150 mM NaCl, 3 mM EDTA, 0.05% Tween-20; 1:1 binding model; averages of two independent experiments
biotinylated human angiotensin-converting enzyme 2 reference material ACE2-1 (human), sequence (Q9BYF1 20-614): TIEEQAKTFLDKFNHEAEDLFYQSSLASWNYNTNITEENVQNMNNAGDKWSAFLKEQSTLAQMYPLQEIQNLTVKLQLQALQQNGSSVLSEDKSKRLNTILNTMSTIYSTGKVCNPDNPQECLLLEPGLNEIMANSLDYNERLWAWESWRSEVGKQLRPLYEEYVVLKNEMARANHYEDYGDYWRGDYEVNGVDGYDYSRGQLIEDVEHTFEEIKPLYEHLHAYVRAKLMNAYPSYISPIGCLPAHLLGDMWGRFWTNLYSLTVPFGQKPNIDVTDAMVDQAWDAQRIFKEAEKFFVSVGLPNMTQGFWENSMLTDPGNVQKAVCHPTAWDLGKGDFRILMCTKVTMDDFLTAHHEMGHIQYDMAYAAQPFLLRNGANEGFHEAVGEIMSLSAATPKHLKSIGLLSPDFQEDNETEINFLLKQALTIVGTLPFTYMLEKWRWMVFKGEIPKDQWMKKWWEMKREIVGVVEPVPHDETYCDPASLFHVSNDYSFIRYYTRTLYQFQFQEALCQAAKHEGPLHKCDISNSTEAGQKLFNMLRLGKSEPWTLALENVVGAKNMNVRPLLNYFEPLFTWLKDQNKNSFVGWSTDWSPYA

## SARS-CoV-2 Omicron BA.4/5 spike protein reference material OMIC-1 (from UniProt P0DTC2 14-1213)
[1]
  percent in higher molecular weight oligomers (SEC-UV): 14%
  percent in the trimeric form (SEC-UV): 82%
  stoichiometry N: 3 and 6
[2]
  Kd: 4.4 nM
